The results in this text go back to patent US20250161358A1 (UTC THERAPEUTICS SHANGHAI, published 2025).

Sequences and labels used below:
T1: CD7-Fc recombinant protein (human, UniProt P09564 26-180)
T1 construct: also called CD7-Fc protein; human CD7-Fc
T1 sequence (looked up): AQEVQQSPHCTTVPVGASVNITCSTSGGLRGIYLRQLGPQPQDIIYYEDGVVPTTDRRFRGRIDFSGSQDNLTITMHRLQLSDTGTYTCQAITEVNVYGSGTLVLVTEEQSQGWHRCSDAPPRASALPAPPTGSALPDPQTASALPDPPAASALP

B1: anti-CD7 scFv-H15 antibody (scFv, V domains shown)
VH: EVQLVQSGAEVKKPGASVKVSCKVSGYTLTELSMHWVRQAPGKGLEWMGGFDPEDGETIYAQKFQGRVTMTEDTSTDTAYMELSSLRSEDTAVYYCATERASGSYEYYFDYWGQGTLVTVSS
VL: AIQLTQSPSSVSASVGDRVTITCRASQGISSWLAWYQQKPGKAPKLLIYAASSLQSGVPSRFSGSGSGTDFTLTISSLQPEDFATYYCQQANSFPYTFGQGTKVEIK
notes: Fully human scFv from the phage library
B2: anti-CD7 scFv-H18 antibody (scFv, V domains shown)
VH: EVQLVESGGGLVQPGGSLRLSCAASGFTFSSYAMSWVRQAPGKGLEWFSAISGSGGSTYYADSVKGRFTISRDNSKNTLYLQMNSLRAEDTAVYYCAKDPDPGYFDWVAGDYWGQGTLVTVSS
VL: QSALTQPPSASGSPGQSVTISCTGTSSDVGGYTYVSWYQQHPGKAPKLMIYEVSKRPSGVPDRFSGSKSGNTASLTVSGLQAEDEADYYCSSYAGSNNVVFGGGTELTVL
notes: as for B1
B3: anti-CD7 scFv-H13 antibody (scFv, V domains shown)
VH: QVQLVQSGAEVKKPGSSVKVSCKASGGTFSSYAISWVRQAPGQGLEWMGGIIPIFGTANYAQKFQGRVTITADESTSTAYMELSSLRSEDTAVYYCARDQGVVPAAEIPYYDFWSGPPFDPWGQGTLVTVSS
VL: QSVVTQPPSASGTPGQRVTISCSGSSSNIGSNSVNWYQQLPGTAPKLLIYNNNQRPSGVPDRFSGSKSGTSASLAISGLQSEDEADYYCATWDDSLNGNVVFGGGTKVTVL
notes: as for B1
B4: anti-CD7 scFv-H7 antibody (scFv, V domains shown)
VH: EVQLVESGGGLIQPGGSLRLSCAASGFTVSSNYMSWVRQAPGKGLEWVSVIYSGGSTYYADSVKGRFTISRDNSKNTLYLQMNSLRAEDTAVYYCATDYGELHDAFDIWGQGTTVTVSS
VL: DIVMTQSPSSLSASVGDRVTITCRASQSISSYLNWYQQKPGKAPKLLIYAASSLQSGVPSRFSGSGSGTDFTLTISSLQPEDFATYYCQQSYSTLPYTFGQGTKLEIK
notes: Fully human scFv from the phage library; also called anti-CD7 CAR-H7
B5: anti-CD7 scFv-H9 antibody (scFv, V domains shown)
VH: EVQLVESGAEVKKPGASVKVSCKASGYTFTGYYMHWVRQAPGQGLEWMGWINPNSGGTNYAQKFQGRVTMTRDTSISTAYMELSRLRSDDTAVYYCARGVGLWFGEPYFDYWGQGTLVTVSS
VL: QSVLTQPPSASGAPGERVTISCSGSSSNIGSNYVYWYQQLPGTAPKLLIYNSNQRPSGVPDRFSGSKSGASASLAISGLRSEDEADYYCAAWDDSLSGPVFGGGTKVTVL
notes: Fully human scFv from the phage library; also called anti-CD7 CAR-H9
B6: anti-CD7 scFv-H4 antibody (scFv, V domains shown)
VH: QVQLVQSGGGLVQPGGSLRLSCAASGFTFSTYWMSWVRQAPGKGLEWVANINQDGTEKYYVDSVKGRFTISRDNAKNSLYLQMNSLRAEDTAVYYCAREPGIALDYWGQGTLVTVSS
VL: QSVVTQPPSVSAAPGQKVTISCSGSSSNIGNNYVSWYQQLPGTAPKLLIYDNNKRPSGIPDRFSGSKSGTSATLGITGLQTGDEADYYCGTWDSSLSAGDWVFGGGTKLTVL
notes: as for B1
B7: anti-CD7 scFv-H5 antibody (scFv, V domains shown)
VH: QVQLVQSGAEVKKPGESLRISCKGSGYSFTSYWISWVRQMPGKGLEWMGRIDPSDSYTNYSPSFQGHVTISADKSISTAYLQWSSLKASDTAMYYCARHPVTNYYYYGMDVWGQGTTVTVSS
VL: DIRLTQSPSTVSASIGDRVTITCRASQGISNWLTWYQQKPGKAPKLLIYSASTLQSGVPSRFSGSGSGTDFTLTISSLQPEDFATYYCQQANNLRTLTFGGGTKVDIK
notes: as for B1
B8: anti-CD7 scFv-H8 antibody (scFv, V domains shown)
VH: QVQLQESGAGLLKPSETLSLTCAVYGGSISGYYWSWIRQPPGKGLEWIGEINHSGSTNYNPSLKSRVTISVDTSKNQFSLKLSSVTAADTAVYYCARGGGSSGYYLDYWGQGALVTVSS
VL: QSVLTQPPSVSEAPRQRVTISCSGSSSNIGNNAVNWYQQLPGKAPKLLIYYDDLLPSGVSDRFSGSKSGTSASLTISGLQSEDGADYYCASWDDSLNGRVFGGGTKLTVL
notes: as for B1
B9: anti-CD7 scFv-H10 antibody (scFv, V domains shown)
VH: QLQLQESGGGLVQPGGSLRLSCAASGFTFSSYAMSWVRQAPGKGLEWVSAISGSGGSTYYADSVKGRFTISRDNSKNTLYLQMNSLRAEDTAVYYCAKGYSGYPAVLDYWGQGTLVTVSS
VL: QSALTQPASVSGSPGQSITISCTGTSSDVGGSKYVSWYQQHPGKAPKLMIYDVSYRPSGVSDRFSGSKSGNTASLTISGLQAEDEADYYCSSYTSNSNLPLFGGGTKVTVL
notes: Fully human scFv from the phage library; also called anti-CD7 CAR-H10
B10: anti-CD7 scFv-H12 antibody (scFv, V domains shown)
VH: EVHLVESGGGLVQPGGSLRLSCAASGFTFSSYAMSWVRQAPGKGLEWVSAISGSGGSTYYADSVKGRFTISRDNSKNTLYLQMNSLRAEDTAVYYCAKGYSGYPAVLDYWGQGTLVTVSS
VL: QPVLTQPPSASGTPGQRVIISCSGSGSNIGSNTVTWYRQFPGAAPKTLIYNSKLRPSWVPDRFTASKSGTSASLAISGLQSEDEADYYCAAWDDSLNGVVFGGGTKLTVL
notes: as for B1
B11: anti-CD7 scFv-H6 antibody (scFv, V domains shown)
VH: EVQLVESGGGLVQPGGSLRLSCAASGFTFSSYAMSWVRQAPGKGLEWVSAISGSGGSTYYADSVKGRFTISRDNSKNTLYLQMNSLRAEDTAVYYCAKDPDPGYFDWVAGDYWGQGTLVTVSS
VL: QSALTQPPSASGSPGQSVTISCTGTSSDVGGYNYVSWYQQHPGKAPKLMIYEVRKRPSGVPDRFSGSKSGNTASLTVSGLQADDEADYYCSSYAGSNNLGFGGGTKLTVL
notes: as for B1

One assay concerns the target T1, CD7-Fc recombinant protein. As to the kind of experiment: flow cytometry, CAR-T cells stained with CD7-Fc protein (FIG. 4).
Regarding B1, the binding result is given as “binds”.

In the case of B2, the binding result is “binds”.

As for B3, the binding result is reported as “binds”.

The target of another assay is T1, CD7-Fc recombinant protein. As to the kind of experiment: flow cytometry, CAR-T cells stained with CD7-Fc protein.
B4: the binding result was “binds”.

Regarding B5, the binding result is given as “binds”.

For the molecule B6, the binding result is given as “binds”.

For B7, the binding result was “binds”.

As to B8, the binding result is “binds”.

Turning to B9, the binding result was “binds”.

With B10, the binding result is “binds”.

As for B11, the binding result was “binds”.
